From patent US20140087995A1 (published 2014)
Numbered stars: 1 amine (or outer) side, 2 acyl side, 3 side chain; on linkers, the order of the positions; unused ones are H or OH. Bridge positions count the residues as written; N and C are the ends. Side chains are listed from the residue outwards. Ends that are not written are not given here. * marks the point of attachment. C20 diacid = O=C(O)CCCCCCCCCCCCCCCCCCC(=O)*; γGlu = O=C(O)[C@H](CCC(=O)[*:2])N[*:1]

T1: human amylin receptor (amylin 3(a) receptor: human calcitonin receptor with RAMP-3) (human, UniProt P30988 25-474; O60896 24-148, limits assumed)
T1 construct: whole, on cells; Whole cells in the luciferase assay (Assay II a); also called hAmylin-R; hAmylinR
T1 sequence (looked up) 1: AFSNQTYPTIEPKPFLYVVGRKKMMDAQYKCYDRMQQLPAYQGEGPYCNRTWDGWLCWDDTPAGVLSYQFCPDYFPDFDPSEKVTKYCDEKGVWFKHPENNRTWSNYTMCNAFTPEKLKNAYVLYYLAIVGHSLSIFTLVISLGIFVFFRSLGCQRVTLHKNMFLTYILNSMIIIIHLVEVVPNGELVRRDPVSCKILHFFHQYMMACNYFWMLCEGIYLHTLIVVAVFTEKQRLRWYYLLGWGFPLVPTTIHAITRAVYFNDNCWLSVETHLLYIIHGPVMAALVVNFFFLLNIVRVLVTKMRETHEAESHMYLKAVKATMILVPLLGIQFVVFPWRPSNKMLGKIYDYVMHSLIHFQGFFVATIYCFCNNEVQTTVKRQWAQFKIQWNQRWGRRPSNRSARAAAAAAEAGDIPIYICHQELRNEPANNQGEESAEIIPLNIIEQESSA
T1 sequence (looked up) 2: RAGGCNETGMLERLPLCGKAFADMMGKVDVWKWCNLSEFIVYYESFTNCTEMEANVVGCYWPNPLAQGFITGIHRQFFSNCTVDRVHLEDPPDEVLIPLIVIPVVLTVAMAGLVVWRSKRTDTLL

T2: human calcitonin receptor (human, UniProt P30988 25-474)
T2 sequence (looked up): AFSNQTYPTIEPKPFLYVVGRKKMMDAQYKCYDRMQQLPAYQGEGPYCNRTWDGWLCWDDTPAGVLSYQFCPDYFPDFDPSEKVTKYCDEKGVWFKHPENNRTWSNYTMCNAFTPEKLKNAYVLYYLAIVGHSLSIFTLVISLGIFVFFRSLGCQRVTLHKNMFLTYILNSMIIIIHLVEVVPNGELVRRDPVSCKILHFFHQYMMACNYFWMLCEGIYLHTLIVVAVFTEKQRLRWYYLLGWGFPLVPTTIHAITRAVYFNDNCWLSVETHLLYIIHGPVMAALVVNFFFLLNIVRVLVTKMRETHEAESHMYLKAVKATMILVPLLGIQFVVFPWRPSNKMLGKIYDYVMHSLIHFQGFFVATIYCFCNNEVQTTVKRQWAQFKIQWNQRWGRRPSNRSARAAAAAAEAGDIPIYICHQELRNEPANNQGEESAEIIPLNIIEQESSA

T3: human amylin receptor (human, UniProt P30988 25-474; O60896 24-148, limits assumed)
T3 construct: whole, on cells; Used as cell membranes prepared from the Amylin 3(a)/CRE-luc BHK cells (Assay V); also called hAmylin-R; hAmylinR
T3 sequence (looked up) 1: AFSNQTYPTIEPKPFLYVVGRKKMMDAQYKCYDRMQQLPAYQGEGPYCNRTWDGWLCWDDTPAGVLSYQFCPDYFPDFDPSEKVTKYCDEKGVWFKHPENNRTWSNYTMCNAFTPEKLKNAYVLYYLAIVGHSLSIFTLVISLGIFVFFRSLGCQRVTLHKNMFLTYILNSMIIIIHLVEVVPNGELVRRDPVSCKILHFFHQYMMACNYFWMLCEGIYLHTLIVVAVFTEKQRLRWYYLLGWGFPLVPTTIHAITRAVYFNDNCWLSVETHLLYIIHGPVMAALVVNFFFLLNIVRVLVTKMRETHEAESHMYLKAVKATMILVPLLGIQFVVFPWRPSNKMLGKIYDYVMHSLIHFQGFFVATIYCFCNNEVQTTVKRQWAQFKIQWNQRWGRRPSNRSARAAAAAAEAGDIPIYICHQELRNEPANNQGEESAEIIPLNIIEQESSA
T3 sequence (looked up) 2: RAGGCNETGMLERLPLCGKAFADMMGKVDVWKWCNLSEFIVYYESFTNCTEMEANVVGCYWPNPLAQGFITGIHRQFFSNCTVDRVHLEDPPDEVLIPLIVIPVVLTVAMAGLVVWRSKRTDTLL


Assays:
[1] = biological target: T1, human amylin receptor (amylin 3(a) …); experiment: SPA competition binding on membranes of BHK cells with human calcitonin receptor + RAMP-3; displacement of 125I-rat amylin (Assay V)
Experimental: The binding assay was performed using scintillation proximity assay (SPA) beads (RPNQ0001) from PerkinElmer and cell membranes from the Amylin 3(a)/CRE-luc cells (as described in Assay (II)) were used. Membranes were prepared in the following way; the cells were rinsed with PBS and incubated with Versene for approximately 5 min before harvesting. The cells were flushed with PBS and the cell-suspension was centrifuged for 5 min at 1000 rpm. Cells were homogenized (ultrathurrax) in a buffer containing 20 mM Na-HEPES and 10 mM EDTA (pH 7.4) and centrifuged at 20.000 rpm for 15 min. The resulting pellet was resuspended, homogenized and centrifuged (20.000 rpm, 15 min) in a buffer containing 20 mM Na-HEPES and 0.1 mM EDTA (pH 7.4, buffer 2). The resulting pellet was resuspended in buffer 2 and protein concentration was measured (BCA protein Assay, Pierce). The homogenate was kept cold during the whole procedure. The membranes were kept at −80° C. until use. The assay was performed in a 384 well Optiplate (PerkinElmer) in a total volume of 40 ul. Membranes were mixed with SPA beads. Final concentration of membranes 35 ng/μL final and SPA beads was 0.05 mg/well. Test-compounds were dissolved in DMSO and further diluted in assay buffer (50 mM Hepes, pH 7.4, 1 mM CaCl2, 5 mM MgCl₂, 0.1% OA and 0.02% Tween20). […] The final mixture was incubated with shaking at 400 rpm for 120 min at 25° C. prior to centrifugation (1500 rpm, 10 min). Samples were analyzed on TopCounter™ (Packard). The IC₅₀ was calculated using (one site binding competition analysis) GraphPad Prism5 as a measure of receptor affinity.

[2] = biological target: T2, human calcitonin receptor; experiment: cell-based or functional assay
[3] = biological target: T3, human amylin receptor; experiment: SPA competition vs 125I-rat amylin, membranes of amylin 3(a) receptor BHK cells (Assay V)
How it was run: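 Membranes from BHK Amylin 3(a)/CRE-luc cells (35 ng/μL final) were mixed with SPA beads and test compounds in 50 mM Hepes pH 7.4 with 1 mM CaCl2, 5 mM MgCl₂, 0.1% OA and 0.02% Tween20. Incubation ran 120 min at 25° C with shaking; IC₅₀ came from one-site competition fitting.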

Binder	IC50 [1] [pM]	Ratio hCT/hAmylin funct. [2] [ratio]	IC50 [3] [pM]
{C20 diacid-γGlu}-KCNTATCATQRLAEFLRHSSPNFGAIPSSTNVGSHTY-NH2 (disulfide 2-7; SMILES CC[C@H](C)[C@H](NC(=O)[C@H](C)NC(=O)CNC(=O)[C@H](Cc1ccccc1)NC(=O)[C@H](CC(N)=O)NC(=O)[C@@H]1CCCN1C(=O)[C@H](CO)NC(=O)[C@H](CO)NC(=O)[C@H](Cc1c[nH]cn1)NC(=O)[C@H](CCCNC(=N)N)NC(=O)[C@H](CC(C)C)NC(=O)[C@H](Cc1ccccc1)NC(=O)[C@H](CCC(=O)O)NC(=O)[C@H](C)NC(=O)[C@H](CC(C)C)NC(=O)[C@H](CCCNC(=N)N)NC(=O)[C@H](CCC(N)=O)NC(=O)[C@@H](NC(=O)[C@H](C)NC(=O)[C@@H]1CSSC[C@H](NC(=O)[C@H](CCCCN)NC(=O)CC[C@H](NC(=O)CCCCCCCCCCCCCCCCCCC(=O)O)C(=O)O)C(=O)N[C@@H](CC(N)=O)C(=O)N[C@@H]([C@@H](C)O)C(=O)N[C@@H](C)C(=O)N[C@@H]([C@@H](C)O)C(=O)N1)[C@@H](C)O)C(=O)N1CCC[C@H]1C(=O)N[C@@H](CO)C(=O)N[C@@H](CO)C(=O)N[C@H](C(=O)N[C@@H](CC(N)=O)C(=O)N[C@H](C(=O)NCC(=O)N[C@@H](CO)C(=O)N[C@@H](Cc1c[nH]cn1)C(=O)N[C@H](C(=O)N[C@@H](Cc1ccc(O)cc1)C(N)=O)[C@@H](C)O)C(C)C)[C@@H](C)O, also called compound 18)	554	4.8	–
{C20 diacid-γGlu}-KCNTATCATQRLADFLRHSSPNFGAIPSSTNVGSNTP-NH2 (disulfide 2-7; SMILES CC[C@H](C)[C@H](NC(=O)[C@H](C)NC(=O)CNC(=O)[C@H](Cc1ccccc1)NC(=O)[C@H](CC(N)=O)NC(=O)[C@@H]1CCCN1C(=O)[C@H](CO)NC(=O)[C@H](CO)NC(=O)[C@H](Cc1c[nH]cn1)NC(=O)[C@H](CCCNC(=N)N)NC(=O)[C@H](CC(C)C)NC(=O)[C@H](Cc1ccccc1)NC(=O)[C@H](CC(=O)O)NC(=O)[C@H](C)NC(=O)[C@H](CC(C)C)NC(=O)[C@H](CCCNC(=N)N)NC(=O)[C@H](CCC(N)=O)NC(=O)[C@@H](NC(=O)[C@H](C)NC(=O)[C@@H]1CSSC[C@H](NC(=O)[C@H](CCCCN)NC(=O)CC[C@H](NC(=O)CCCCCCCCCCCCCCCCCCC(=O)O)C(=O)O)C(=O)N[C@@H](CC(N)=O)C(=O)N[C@@H]([C@@H](C)O)C(=O)N[C@@H](C)C(=O)N[C@@H]([C@@H](C)O)C(=O)N1)[C@@H](C)O)C(=O)N1CCC[C@H]1C(=O)N[C@@H](CO)C(=O)N[C@@H](CO)C(=O)N[C@H](C(=O)N[C@@H](CC(N)=O)C(=O)N[C@H](C(=O)NCC(=O)N[C@@H](CO)C(=O)N[C@@H](CC(N)=O)C(=O)N[C@H](C(=O)N1CCC[C@H]1C(N)=O)[C@@H](C)O)C(C)C)[C@@H](C)O, also called compound 10)	82	1	–
K([γGlu-C20 diacid])RCNTATCATQRLANFLRHSSPNFGAIPSSTNVGSHTY-NH2 (disulfide 3-8; N-terminus assumed; SMILES CC[C@H](C)[C@H](NC(=O)[C@H](C)NC(=O)CNC(=O)[C@H](Cc1ccccc1)NC(=O)[C@H](CC(N)=O)NC(=O)[C@@H]1CCCN1C(=O)[C@H](CO)NC(=O)[C@H](CO)NC(=O)[C@H](Cc1c[nH]cn1)NC(=O)[C@H](CCCNC(=N)N)NC(=O)[C@H](CC(C)C)NC(=O)[C@H](Cc1ccccc1)NC(=O)[C@H](CC(N)=O)NC(=O)[C@H](C)NC(=O)[C@H](CC(C)C)NC(=O)[C@H](CCCNC(=N)N)NC(=O)[C@H](CCC(N)=O)NC(=O)[C@@H](NC(=O)[C@H](C)NC(=O)[C@@H]1CSSC[C@H](NC(=O)[C@H](CCCNC(=N)N)NC(=O)[C@@H](N)CCCCNC(=O)CC[C@H](NC(=O)CCCCCCCCCCCCCCCCCCC(=O)O)C(=O)O)C(=O)N[C@@H](CC(N)=O)C(=O)N[C@@H]([C@@H](C)O)C(=O)N[C@@H](C)C(=O)N[C@@H]([C@@H](C)O)C(=O)N1)[C@@H](C)O)C(=O)N1CCC[C@H]1C(=O)N[C@@H](CO)C(=O)N[C@@H](CO)C(=O)N[C@H](C(=O)N[C@@H](CC(N)=O)C(=O)N[C@H](C(=O)NCC(=O)N[C@@H](CO)C(=O)N[C@@H](Cc1c[nH]cn1)C(=O)N[C@H](C(=O)N[C@@H](Cc1ccc(O)cc1)C(N)=O)[C@@H](C)O)C(C)C)[C@@H](C)O, also called compound 44)	–	–	275
